US20260242823
Where two headings read alike, the source gives them in different places.

Legend:
wild-type FVIII [1] = system: wild-type FVIII
FVIII-R336Q/R562Q [2] = system: FVIII-R336Q/R562Q
wild-type FVIII [3] = biological target: wild-type FVIII; remark: listed apart in the source
FVIII-R336Q/R562Q [4] = biological target: FVIII-R336Q/R562Q; remark: listed apart in the source

FVIII-R336Q/R562Q, sequence (chain, as listed by the source R336Q R562Q): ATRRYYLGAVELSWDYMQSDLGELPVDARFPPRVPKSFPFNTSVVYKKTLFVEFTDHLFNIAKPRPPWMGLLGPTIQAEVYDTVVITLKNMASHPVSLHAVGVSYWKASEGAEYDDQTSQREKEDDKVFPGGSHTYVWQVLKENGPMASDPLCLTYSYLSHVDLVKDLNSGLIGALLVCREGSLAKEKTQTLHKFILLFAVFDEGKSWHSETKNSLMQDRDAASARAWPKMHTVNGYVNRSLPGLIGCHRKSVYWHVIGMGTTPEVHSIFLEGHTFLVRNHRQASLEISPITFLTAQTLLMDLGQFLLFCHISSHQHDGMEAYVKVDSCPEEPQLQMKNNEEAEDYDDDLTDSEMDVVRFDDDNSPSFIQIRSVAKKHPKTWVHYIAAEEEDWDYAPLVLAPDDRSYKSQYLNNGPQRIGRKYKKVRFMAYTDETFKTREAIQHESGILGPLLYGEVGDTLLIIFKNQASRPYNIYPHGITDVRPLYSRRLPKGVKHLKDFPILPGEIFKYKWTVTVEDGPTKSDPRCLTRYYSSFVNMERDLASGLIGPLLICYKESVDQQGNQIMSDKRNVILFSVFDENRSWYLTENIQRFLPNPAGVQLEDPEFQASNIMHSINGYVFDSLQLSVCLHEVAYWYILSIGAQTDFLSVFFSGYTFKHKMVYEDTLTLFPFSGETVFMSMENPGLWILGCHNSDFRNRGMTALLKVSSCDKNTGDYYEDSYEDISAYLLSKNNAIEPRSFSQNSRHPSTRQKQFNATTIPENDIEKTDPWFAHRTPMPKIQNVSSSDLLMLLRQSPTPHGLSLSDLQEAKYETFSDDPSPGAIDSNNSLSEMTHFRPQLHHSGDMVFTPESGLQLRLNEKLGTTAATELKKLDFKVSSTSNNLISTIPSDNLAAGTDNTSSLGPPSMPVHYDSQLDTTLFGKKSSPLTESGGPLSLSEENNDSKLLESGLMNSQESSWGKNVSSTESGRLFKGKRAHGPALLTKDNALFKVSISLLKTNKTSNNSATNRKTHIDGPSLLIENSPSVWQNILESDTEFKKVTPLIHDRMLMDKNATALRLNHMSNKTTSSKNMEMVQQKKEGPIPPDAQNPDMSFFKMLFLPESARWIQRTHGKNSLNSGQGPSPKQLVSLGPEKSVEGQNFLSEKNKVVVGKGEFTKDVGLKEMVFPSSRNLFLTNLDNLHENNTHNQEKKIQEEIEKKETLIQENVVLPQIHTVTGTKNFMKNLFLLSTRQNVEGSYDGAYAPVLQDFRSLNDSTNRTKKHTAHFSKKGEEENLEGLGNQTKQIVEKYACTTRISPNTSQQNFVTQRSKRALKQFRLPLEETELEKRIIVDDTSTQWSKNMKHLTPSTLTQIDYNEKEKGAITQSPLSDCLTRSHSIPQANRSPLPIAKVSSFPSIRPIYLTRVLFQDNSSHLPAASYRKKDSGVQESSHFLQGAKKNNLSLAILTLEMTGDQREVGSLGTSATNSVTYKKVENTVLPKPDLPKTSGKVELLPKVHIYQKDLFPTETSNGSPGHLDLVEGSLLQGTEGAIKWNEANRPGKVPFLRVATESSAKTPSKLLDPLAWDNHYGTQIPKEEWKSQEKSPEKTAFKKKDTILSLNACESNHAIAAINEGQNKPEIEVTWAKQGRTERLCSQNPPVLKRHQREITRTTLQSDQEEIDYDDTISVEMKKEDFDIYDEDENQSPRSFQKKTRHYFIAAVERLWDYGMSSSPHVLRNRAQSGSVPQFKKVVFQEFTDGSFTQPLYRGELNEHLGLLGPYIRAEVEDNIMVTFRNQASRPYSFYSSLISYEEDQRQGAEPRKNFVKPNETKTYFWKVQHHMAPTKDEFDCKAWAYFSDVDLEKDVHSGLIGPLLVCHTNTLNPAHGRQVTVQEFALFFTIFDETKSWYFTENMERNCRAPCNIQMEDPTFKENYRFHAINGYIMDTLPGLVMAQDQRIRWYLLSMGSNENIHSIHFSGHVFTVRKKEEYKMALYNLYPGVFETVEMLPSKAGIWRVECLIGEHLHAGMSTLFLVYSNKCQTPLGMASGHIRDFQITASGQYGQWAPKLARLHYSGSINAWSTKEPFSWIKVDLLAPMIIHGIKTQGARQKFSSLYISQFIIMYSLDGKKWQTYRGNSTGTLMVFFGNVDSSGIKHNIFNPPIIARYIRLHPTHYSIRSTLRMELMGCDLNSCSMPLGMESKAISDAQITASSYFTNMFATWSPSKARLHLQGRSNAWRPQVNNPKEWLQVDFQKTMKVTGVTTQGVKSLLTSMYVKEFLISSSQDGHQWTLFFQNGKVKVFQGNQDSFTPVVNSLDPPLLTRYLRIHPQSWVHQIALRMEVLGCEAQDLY
wild-type FVIII, sequence (chain, as listed by the source): as the sequence (chain, as listed by the source R336Q R562Q) above, with Q336R, Q562R counted along it

Molecule	Western Blot analysis of cleavage fragments (wild-type FVIII [1])	Western Blot analysis of cleavage fragments (FVIII-R336Q/R562Q [2])	Western blot cleavage at R372 (wild-type FVIII [1])	Western Blot analysis of cleavage fragments (wild-type FVIII [3])	Western Blot analysis of cleavage fragments (FVIII-R336Q/R562Q [4])
FXa	all serine proteases cleaved at R336 or R562 in FVIII-WT	no such cleavage fragments were seen with FVIII-QQ	–	–	–
FIXa	all serine proteases cleaved at R336 or R562 in FVIII-WT	no such cleavage fragments were seen with FVIII-QQ	–	–	–
thrombin (IIa)	all serine proteases cleaved at R336 or R562 in FVIII-WT	no such cleavage fragments were seen with FVIII-QQ	thrombin (IIa) as well as multiple serine proteases can also cleave R372 of FVIII	–	–
activated protein C	all serine proteases cleaved at R336 or R562 in FVIII-WT	no such cleavage fragments were seen with FVIII-QQ	–	–	–
plasmin (protein) KVYLSECKTGNGKNYRGTMSKTKNGITCQKWSSTSPHRPRFSPATHPSEGLEENYCRNPDNDPQGPWCYTTDPEKRYDYCDILECEEECMHCSGENYDGKISKTMSGLECQAWDSQSPHAHGYIPSKFPNKNLKKNYCRNPDRELRPWCFTTDPNKRWELCDIPRCTTPPPSSGPTYQCLKGTGENYRGNVAVTVSGHTCQHWSAQTPHTHNRTPENFPCKNLDENYCRNPDGKRAPWCHTTNSQVRWEYCKIPSCDSSPVSTEQLAPTAPPELTPVVQDCYHGDGQSYRGTSSTTTTGKKCQSWSSMTPHRHQKTPENYPNAGLTMNYCRNPDADKGPWCFTTDPSVRWEYCNLKKCSGTEASVVAPPPVVLLPDVETPSEEDCMFGNGKGYRGKRATTVTGTPCQDWAAQEPHRHSIFTPETNPRAGLEKNYCRNPDGDVGGPWCYTTNPRKLYDYCDVPQCAAPSFDCGKPQVEPKKCPGRVVGGCVAHPHSWPWQVSLRTRFGMHFCGGTLISPEWVLTAAHCLEKSPRPSSYKVILGAHQEVNLEPHVQEIEVSRLFLEPTRKDIALLKLSSPAVITDKVIPACLPSPNYVVADRTECFITGWGETQGTFGAGLLKEAQLPVIENKVCNRYEFLNGRVQSTELCAGHLAGGTDSCQGDSGGPLVCFEKDKYILQGVTSWGLGCARPNKPGVYVRVSRFVTWIEGVMRNN	–	–	–	all serine proteases cleaved at R336 or R562 in FVIII-WT	no such cleavage fragments were seen with FVIII-QQ
